Like-named read-outs stand apart in the source and are kept apart here.
Assays:
Assay type in all cases: cell-based
HEK 293 cells = assay: Arch fluorescence as a function of membrane potential, whole-cell voltage clamp; details: for Approx ΔF/F per 100 mV: Table 2, described herein
Description: Fluorescence of Arch in HEK 293 cells supplemented with about 5 μM all-trans retinal (See Methods 4) was readily imaged in an inverted fluorescence microscope with red illumination (λ=640 nm, about 20 mW, and about I=540 W/cm^2), a high numerical aperture objective (NA), a Cy5 filter set, and an EMCCD camera (See Methods 5, FIG. 3A). […] Cells not expressing Arch were not fluorescent.
(4) HEK cell culture. HEK-293 cells were grown at 37° C., 5% CO2, in DMEM supplemented with 10% FBS and penicillin-streptomycin. Plasmids were transfected using Lipofectamine and PLUS reagent (Invitrogen) following the manufacturer's instructions, and assayed between 48-72 hours later. The day before recording, cells were re-plated onto glass-bottom dishes (MatTek) at a density of ˜5000 cells/cm^2.
The concentration of endogenous retinal in the HEK cells was not known, so the cells were supplemented with retinal by diluting stock retinal solutions (40 mM, DMSO) in growth medium to a final concentration of 5 micromolar, and then placing the cells back in the incubator for 1-3 hours. All imaging and electrophysiology were performed in Tyrode buffer (containing, in mM: 125 NaCl, 2 KCl, 3 CaCl2, 1 MgCl2, 10 HEPES, 30 glucose pH 7.3, and adjusted to 305-310 mOsm with sucrose). Only HEK cells having reversal potentials between −10 and −40 mV were included in the analysis.
(5) Microscopy. Simultaneous fluorescence and whole-cell patch clamp recordings were acquired on a home-built, inverted epifluorescence microscope, operated at room temperature. One goal was to collect fluorescence with high efficiency, while also achieving a large enough field of view to image an entire neuron and its processes. Typically, microscope objectives offer a tradeoff between magnification and light-gathering capacity (numerical aperture). Additionally, the ability to change magnification while maintaining a patch on a single cell was important in some cases. Typically the vibrations associated with switching objectives—particularly water or oil immersion objectives—are incompatible with simultaneous patch clamp. In addition, in some cases, the capability to split the field of view into two wavelength bands, and to change magnification without changing the registration of the two halves of the image was important.
(6) Electrophysiology. Filamented glass micropipettes (WPI) were pulled to a tip resistance of 3-10 megohm fire polished, and filled with internal solution (containing, in mM: 125 potassium gluconate, 8 NaCl, 0.6 MgCl2, 0.1 CaCl2, 1 EGTA, 10 HEPES, 4 Mg-ATP, 0.4 Na-GTP, pH 7.3; adjusted to 295 mOsm with sucrose). The micropipettes were positioned with a Burleigh PCS 5000 micromanipulator. Whole-cell, voltage clamp recordings were acquired using an AxoPatch 200B amplifier (Molecular Devices), filtered at 2 kHz with the internal Bessel filter, and digitized with a National Instruments PCIE-6323 acquisition board at 10 kHz. […]
(7) Ramp and step-response of Arch WT and D95N. To measure fluorescence as a function of membrane potential, a triangle wave was applied, with amplitude from −150 mV to +150 mV and period 12 s, with video recording at 100 ms per frame. A pixel weight matrix was calculated according to Eq. S2 (below) and applied to the movie images to generate a fluorescence number for each frame. These fluorescence values were divided by their minimum value (at V=−150 mV). […] Background subtraction from the raw fluorescence would have yielded considerably larger values of delta-F/F.

HEK cells = assay: Step response of fluorescence to membrane potential steps; details: for Approx response time: Table 2, described herein; for τresponse: determined from step-response
Description: The step response was measured in a similar manner, except that test waveforms consisted of a series of voltage pulses, from −70 mV to +30 mV with duration 300 ms and period 1 s. Cells were subjected to 20 repetitions of the waveform, and the fluorescence response was averaged over all iterations.

[1] = tested on: cultured mouse hippocampal neurons; assay: Optopatch: optical stimulation and recording in neurons; details: red light 230 W/cm^2, 640 nm
From the text: In another example, a genetic construct termed “Optopatch” was used to provide simultaneous optical stimulation and recording from neurons. One embodiment of the Optopatch construct consisted of a bicistronic vector for co-expression of channelrhopsin 64 (ChR64)-mOrange II and archaerhodopsin 3 (Arch)-eGFP. This construct is depicted in FIG. 18A. The abbreviations used in the figure may be interpreted as follows. ss: Signaling sequence designed to improve the trafficking of Arch to the plasma membrane; Arch: Archaerhodopsin 3; eGFP: Enhanced green fluorescent protein; ER2: Endoplasmic reticulum export motif, designed to improve the trafficking of Arch to the plasma membrane; P2A: porcine teschovirus-1 2A sequence, a ribosomal skip-site leading to expression of two proteins from a single mRNA transcript; ChR64: Channelrhodopsin 64, a blue light-activated ion channel; mOr2: mOrange 2 fluorescent protein. […]
Whole-field illumination with pulses of blue light (20 mW/cm^2, 10 ms, 488 nm, repeated at 10 Hz) led to flashes of red fluorescence (em: 660-760 nm), detected on a high speed EMCCD camera. […] The optically-recorded fluorescence waveform coincided closely with the electrically recorded waveform on a single-trial basis (as shown in FIG. 18C), with a noise in the optically recorded voltage of 1.1 mV at a 1 kHz acquisition rate.

[2] = steps between −70 mV and +30 mV

Molecule | greater sensitivity than wild-type (HEK 293 cells) [%] | Approx ΔF/F per 100 mV (HEK 293 cells) [%] | increase in fluorescence between −150 mV and +150 mV (HEK 293 cells; whole-cell voltage clamp, no background subtraction) | response time (HEK cells) [ms] | Approx response time (HEK cells) [ms] | τresponse (HEK cells) [ms] | response time (HEK cells; listed as Arch 3 D95N) [ms] | fast component of step response (HEK cells; [2]) [μs] | fraction of step response that is fast (HEK cells; [2]) | time constant of slow component of step response (HEK cells; [2]) [ms] | fraction of step response that is fast (HEK cells; steps between −70 mV and +30 mV, listed as ArchD95N) [%] | outward photocurrent mediated by Arch ([1]; n=6 cells) [pA] | hyperpolarization of cells by Arch photocurrent ([1]; n=8 cells) [mV] | photobleaching (HEK 293 cells; continuous 10-minute exposure, 640 nm, about 540 W/cm^2, HEK 293 cells) | time for 90% of step response (HEK cells) [ms]
Arch D95N: Archaerhodopsin 3 with aspartic acid 95 mutated to asparagine; non-pumping voltage indicator (protein, UniProt P96787 7-258, looked up, variant D95N) Archaerhodopsin-3: QAGYDLLGDGRPETLWLGIGTLLMLIGTFYFLVRGWGVTDKDAREYYAVTILVPGIASAAYLSMFFGIGLTEVTVGGEMLDIYYARYANWLFTTPLLLLDLALLAKVDRVTIGTLVGVDALMIVTGLIGALSHTAIARYSWWLFSTICMIVVLYFLATSLRSAAKERGPEVASTFNTLTALVLVLWTAYPILWIIGTEGAGVVGLGIETLLFMVLDVTAKVGFGFILLRSRAILGDTEAPEPSAGADVSAAD | 50 | 100 | about 3 fold | 41 | 41 | 41 | 40 | < 500 | about 20% | 41 | 20 |  |  |  | 
Archaerhodopsin 3 (protein, Halorubrum sodomense, Microbial rhodopsin from Halorubrum sodomense, light-driven proton pump used as fluorescent voltage indicator; experiments used an Arch-eGFP fusion) MDPIALQAGYDLLGDGRPETLWLGIGTLLMLIGTFYFLVRGWGVTDKDAREYYAVTILVPGIASAAYLSMFFGIGLTEVTVGGEMLDIYYARYADWLFTTPLLLLDLALLAKVDRVTIGTLVGVDALMIVTGLIGALSHTAIARYSWWLFSTICMIVVLYFLATSLRSAAKERGPEVASTFNTLTALVLVLWTAYPILWIIGTEGAGVVGLGIETLLFMVLDVTAKVGFGFILLRSRAILGDTEAPEPSAGADVSAAD |  | 66 |  |  | <0.5 | < 0.5 |  |  |  |  |  | 34±7 | 6.1±1.1 | about 17% | < 0.5
